# From IntAct's records for PubMed 31515488
# B1: Four and a half LIM domains protein 3 (Homo sapiens), Q13643 (parent)
# chain: MSESFDCAKCNESLYGRKYIQTDSGPYCVPCYDNTFANTCAECQQLIGHDSRELFYEDRHFHEGCFRCCRCQRSLADEPFTCQDSELLCNDCYCSAFSSQCSACGETVMPGSRKLEYGGQTWHEHCFLCSGCEQPLGSRSFVPDKGAHYCVPCYENKFAPRCARCSKTLTQGGVTYRDQPWHRECLVCTGCQTPLAGQQFTSRDEDPYCVACFGELFAPKCSSCKRPIVGLGGGKYVSFEDRHWHHNCFSCARCSTSLVGQGFVPDGDQVLCQGCSQAGP
# B2: Polymerase delta-interacting protein 3 (Homo sapiens), Q9BY77 (parent)
# chain: MADISLDELIRKRGAAAKGRLNARPGVGGVRSRVGIQQGLLSQSTRTATFQQRFDARQKIGLSDARLKLGVKDAREKLLQKDARFRIKGKVQDAREMLNSRKQQTTVPQKPRQVADAREKISLKRSSPAAFINPPIGTVTPALKLTKTIQVPQQKAMAPLHPHPAGMRINVVNNHQAKQNLYDLDEDDDGIASVPTKQMKFAASGGFLHHMAGLSSSKLSMSKALPLTKVVQNDAYTAPALPSSIRTKALTNMSRTLVNKEEPPKELPAAEPVLSPLEGTKMTVNNLHPRVTEEDIVELFCVCGALKRARLVHPGVAEVVFVKKDDAITAYKKYNNRCLDGQPMKCNLHMNGNVITSDQPILLRLSDSPSMKKESELPRRVNSASSSNPPAEVDPDTILKALFKSSGASVTTQPTEFKIKL
# partner: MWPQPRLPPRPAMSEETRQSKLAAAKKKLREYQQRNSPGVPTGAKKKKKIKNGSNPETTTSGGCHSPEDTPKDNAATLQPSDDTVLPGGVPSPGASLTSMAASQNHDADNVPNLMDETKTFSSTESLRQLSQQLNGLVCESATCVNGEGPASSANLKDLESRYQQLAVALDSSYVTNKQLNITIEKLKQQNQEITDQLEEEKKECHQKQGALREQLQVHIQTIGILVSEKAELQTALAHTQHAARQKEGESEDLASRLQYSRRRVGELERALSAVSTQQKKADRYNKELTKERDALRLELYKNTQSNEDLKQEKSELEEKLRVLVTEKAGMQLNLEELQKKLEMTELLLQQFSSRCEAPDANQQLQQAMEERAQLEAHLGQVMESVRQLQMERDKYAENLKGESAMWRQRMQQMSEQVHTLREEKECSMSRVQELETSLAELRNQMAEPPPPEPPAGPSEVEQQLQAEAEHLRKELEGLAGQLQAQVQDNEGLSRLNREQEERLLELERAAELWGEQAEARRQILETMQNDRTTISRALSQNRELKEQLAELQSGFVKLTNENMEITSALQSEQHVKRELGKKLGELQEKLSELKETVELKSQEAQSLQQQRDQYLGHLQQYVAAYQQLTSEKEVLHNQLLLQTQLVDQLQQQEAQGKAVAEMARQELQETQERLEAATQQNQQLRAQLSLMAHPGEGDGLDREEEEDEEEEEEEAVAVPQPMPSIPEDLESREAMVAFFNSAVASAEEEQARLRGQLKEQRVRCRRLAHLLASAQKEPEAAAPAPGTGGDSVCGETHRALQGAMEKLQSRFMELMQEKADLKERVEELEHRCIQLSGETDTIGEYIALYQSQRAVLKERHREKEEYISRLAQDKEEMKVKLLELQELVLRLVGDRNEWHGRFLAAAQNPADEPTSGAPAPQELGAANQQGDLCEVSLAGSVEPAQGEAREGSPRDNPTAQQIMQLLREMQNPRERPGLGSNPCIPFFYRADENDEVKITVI
# B3: Tripartite motif-containing protein 10 (Homo sapiens), Q9UDY6 (parent)
# chain: MASAASVTSLADEVNCPICQGTLREPVTIDCGHNFCRACLTRYCEIPGPDLEESPTCPLCKEPFRPGSFRPNWQLANVVENIERLQLVSTLGLGEEDVCQEHGEKIYFFCEDDEMQLCVVCREAGEHATHTMRFLEDAAAPYREQIHKCLKCLRKEREEIQEIQSRENKRMQVLLTQVSTKRQQVISEFAHLRKFLEEQQSILLAQLESQDGDILRQRDEFDLLVAGEICRFSALIEELEEKNERPARELLTDIRSTLIRCETRKCRKPVAVSPELGQRIRDFPQQALPLQREMKMFLEKLCFELDYEPAHISLDPQTSHPKLLLSEDHQRAQFSYKWQNSPDNPQRFDRATCVLAHTGITGGRHTWVVSIDLAHGGSCTVGVVSEDVQRKGELRLRPEEGVWAVRLAWGFVSALGSFPTRLTLKEQPRQVRVSLDYEVGWVTFTNAVTREPIYTFTASFTRKVIPFFGLWGRGSSFSLSS
# B4: Zinc finger protein Aiolos (Homo sapiens), Q9UKT9 (parent)
# chain: MEDIQTNAELKSTQEQSVPAESAAVLNDYSLTKSHEMENVDSGEGPANEDEDIGDDSMKVKDEYSERDENVLKSEPMGNAEEPEIPYSYSREYNEYENIKLERHVVSFDSSRPTSGKMNCDVCGLSCISFNVLMVHKRSHTGERPFQCNQCGASFTQKGNLLRHIKLHTGEKPFKCHLCNYACQRRDALTGHLRTHSVEKPYKCEFCGRSYKQRSSLEEHKERCRTFLQSTDPGDTASAEARHIKAEMGSERALVLDRLASNVAKRKSSMPQKFIGEKRHCFDVNYNSSYMYEKESELIQTRMMDQAINNAISYLGAEALRPLVQTPPAPTSEMVPVISSMYPIALTRAEMSNGAPQELEKKSIHLPEKSVPSERGLSPNNSGHDSTDTDSNHEERQNHIYQQNHMVLSRARNGMPLLKEVPRSYELLKPPPICPRDSVKVINKEGEVMDVYRCDHCRVLFLDYVMFTIHMGCHGFRDPFECNMCGYRSHDRYEFSSHIARGEHRALLK
# partner: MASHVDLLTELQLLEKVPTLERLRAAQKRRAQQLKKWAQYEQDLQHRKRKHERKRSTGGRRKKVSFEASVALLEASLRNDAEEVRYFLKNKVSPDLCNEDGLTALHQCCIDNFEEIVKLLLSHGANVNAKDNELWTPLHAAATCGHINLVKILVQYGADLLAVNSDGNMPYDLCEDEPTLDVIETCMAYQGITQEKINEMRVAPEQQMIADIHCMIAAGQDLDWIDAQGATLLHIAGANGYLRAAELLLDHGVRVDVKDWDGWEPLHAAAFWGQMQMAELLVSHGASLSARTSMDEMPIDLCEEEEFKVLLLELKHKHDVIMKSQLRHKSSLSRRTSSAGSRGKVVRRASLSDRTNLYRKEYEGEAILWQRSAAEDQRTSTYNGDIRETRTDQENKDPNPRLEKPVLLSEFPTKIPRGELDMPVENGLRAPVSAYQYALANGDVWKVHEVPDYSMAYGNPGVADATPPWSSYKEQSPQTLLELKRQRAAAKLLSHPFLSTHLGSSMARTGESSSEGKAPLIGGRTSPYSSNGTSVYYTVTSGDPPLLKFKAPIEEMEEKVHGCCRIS
# B5: Vesicle transport through interaction with t-SNAREs homolog 1B (Homo sapiens), Q9UEU0 (parent)
# chain: MASSAASSEHFEKLHEIFRGLHEDLQGVPERLLGTAGTEEKKKLIRDFDEKQQEANETLAEMEEELRYAPLSFRNPMMSKLRNYRKDLAKLHREVRSTPLTATPGGRGDMKYGIYAVENEHMNRLQSQRAMLLQGTESLNRATQSIERSHRIATETDQIGSEIIEELGEQRDQLERTKSRLVNTSENLSKSRKILRSMSRKVTTNKLLLSIIILLELAILGGLVYYKFFRSH
# partner: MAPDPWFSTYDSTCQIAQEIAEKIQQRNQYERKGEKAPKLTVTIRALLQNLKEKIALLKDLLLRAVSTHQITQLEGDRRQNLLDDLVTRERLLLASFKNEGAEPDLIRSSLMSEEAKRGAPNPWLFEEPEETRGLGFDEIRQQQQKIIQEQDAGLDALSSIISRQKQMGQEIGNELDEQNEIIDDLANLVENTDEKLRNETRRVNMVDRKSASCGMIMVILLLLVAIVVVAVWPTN
# B6: DNA mismatch repair protein Mlh1 (Homo sapiens), P40692 (parent)
# chain: MSFVAGVIRRLDETVVNRIAAGEVIQRPANAIKEMIENCLDAKSTSIQVIVKEGGLKLIQIQDNGTGIRKEDLDIVCERFTTSKLQSFEDLASISTYGFRGEALASISHVAHVTITTKTADGKCAYRASYSDGKLKAPPKPCAGNQGTQITVEDLFYNIATRRKALKNPSEEYGKILEVVGRYSVHNAGISFSVKKQGETVADVRTLPNASTVDNIRSIFGNAVSRELIEIGCEDKTLAFKMNGYISNANYSVKKCIFLLFINHRLVESTSLRKAIETVYAAYLPKNTHPFLYLSLEISPQNVDVNVHPTKHEVHFLHEESILERVQQHIESKLLGSNSSRMYFTQTLLPGLAGPSGEMVKSTTSLTSSSTSGSSDKVYAHQMVRTDSREQKLDAFLQPLSKPLSSQPQAIVTEDKTDISSGRARQQDEEMLELPAPAEVAAKNQSLEGDTTKGTSEMSEKRGPTSSNPRKRHREDSDVEMVEDDSRKEMTAACTPRRRIINLTSVLSLQEEINEQGHEVLREMLHNHSFVGCVNPQWALAQHQTKLYLLNTTKLSEELFYQILIYDFANFGVLRLSEPAPLFDLAMLALDSPESGWTEEDGPKEGLAEYIVEFLKKKAEMLADYFSLEIDEEGNLIGLPLLIDNYVPPLEGLPIFILRLATEVNWDEEKECFESLSKECAMFYSIRKQYISEESTLSGQQSEVPGSIPNSWKWTVEHIVYKALRSHILPPKHFTEDGNILQLANLPDLYKVFERC
# Variants of: B1
# Details: with gata2_human GATA2, P23769
row,Variant,effect of a mutation on the interaction
1,R226H,with no effect

# Variants of: B1
# Details: with FAM90A1, Q86YD7
row,Variant,effect of a mutation on the interaction
1,A103T,with no effect

# Variants of: B2
# Details: with goga2_human GOLGA2, Q08379
row,Variant,effect of a mutation on the interaction
1,A15T,with no effect
2,A16V,with no effect
3,R118Q,disrupting interaction strength

# Variants of: B3
# Details: with psa1_human PSMA1, P25786
row,Variant,effect of a mutation on the interaction
1,R65H,with no effect

# Variants of: B4
# Details: with pp16b_human PPP1R16B
row,Variant,effect of a mutation on the interaction
1,A24V,with no effect
2,N119D,with no effect

# Variants of: B5
# Details: with stx8_human STX8, Q9UNK0
row,Variant,effect of a mutation on the interaction
1,R176H,with no effect
2,R124Q,with no effect

# Variants of: B6
# Details: with msh3_human MSH3, P20585
row,Variant,effect of a mutation on the interaction
1,A441T,with no effect
2,S106N,with no effect
3,V384D,with no effect
4,V213M,with no effect

# Variants of: B6
# Details: with ima1_human KPNA2, P52292
row,Variant,effect of a mutation on the interaction
1,A441T,with no effect
2,S106N,with no effect
3,V384D,with no effect
4,V213M,with no effect

# Variants of: B6
# Details: with psa1_human PSMA1, P25786
row,Variant,effect of a mutation on the interaction
1,A441T,with no effect
2,S106N,with no effect
3,V384D,with no effect
4,V213M,with no effect

# Variants of: B6
# Details: with msh3_human MSH3, P20585
# Remark: another data set of the same source
row,Variant,effect of a mutation on the interaction
1,R69K,with no effect

# Variants of: B6
# Details: with ima1_human KPNA2, P52292
# Remark: another data set of the same source
row,Variant,effect of a mutation on the interaction
1,R69K,with no effect

# Variants of: B6
# Details: with psa1_human PSMA1, P25786
# Remark: another data set of the same source
row,Variant,effect of a mutation on the interaction
1,R69K,with no effect
